In US20230068487A1:

Target: commercial recombinant neutrophil elastase (NE) (UniProt P08246)
Test: cell-based or functional assay

UniProt P08246, sequence (P08246 30-247 limits assumed): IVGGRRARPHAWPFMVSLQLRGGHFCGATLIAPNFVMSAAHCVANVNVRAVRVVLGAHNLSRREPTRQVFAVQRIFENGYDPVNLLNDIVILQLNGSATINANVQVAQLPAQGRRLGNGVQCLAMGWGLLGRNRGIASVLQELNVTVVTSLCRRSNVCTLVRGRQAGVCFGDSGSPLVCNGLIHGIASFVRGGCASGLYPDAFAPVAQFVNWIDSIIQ

reduction of NE activity (elastase inhibitory activity, chromogenic substrate) at 0.65 µM WT-rhAAT: 75%
Substance: wild type recombinant human alpha-1-antitrypsin (WT-rhAAT) (from UniProt P01009 25-418)
